Source: patent US20220380791A1 (ELEVA, published 2022)

Molecular target: M6P receptor (M6PR) (human)
Assay: cell-based or functional assay

B1: Agalsidase alfa (Shire, Replagal) (enzyme, UniProt P06280 32-429, looked up)
chain: LDNGLARTPTMGWLHWERFMCNLDCQEEPDSCISEKLFMEMAELMVSEGWKDAGYEYLCIDDCWMAPQRDSEGRLQADPQRFPHGIRQLANYVHSKGLKLGIYADVGNKTCAGFPGSFGYYDIDAQTFADWGVDLLKFDGCYCDSLENLADGYKHMSLALNRTGRSIVYSCEWPLYMWPFQKPNYTEIRQYCNHWRNFADIDDSWKSIKSILDWTSFNQERIVDVAGPGGWNDPDMLVIGNFGLSWNQQVTQMALWAIMAAPLFMSNDLRHISPQAKALLQDKDVIAINQDPLGKQGYQLRQGDNFEVWERPLSGLAWAVAMINRQEIGGPRSYTIAVASLGKGVACNPACFITQLLPVKRKLGFYEWTSRLRSHINPTGTVLLQLENTMQMSLKDLL
modifications: heterogeneous N-glycans, about 24% phosphorylated (M6P) glycans
- intracellular α-gal A activity of Fabry patient fibroblasts after 18 hours incubation with 10 µg/ml enzyme (fold of untreated cells): 116 fold
